Data reported in patent EP4793287A1, “TUMOR MICROENVIRONMENT SPECIFICALLY ACTIVATED CD47 ANTIBODY” (Affinity (Shanghai) Biopharmaceutical Co., Ltd., priority 2023, dated 2025).

Key:
[1] = target: T1, Recombinant human CD47 protein (Homo sapiens, UniProt Q08722); test: ELISA detection of CD47 antibody; format: binding
T1 construct: purchased DIMA BIOTECH PME-100008
Experimental: Recombinant human CD47 protein (DIMA BIOTECH, Cat# PME-100008) was diluted with PBS to a concentration of 1 µg/ml, coated onto ELISA plates with 100 µl/well, and incubated overnight at 4 °C. On the following day, the plates were washed with 300 µl/well of PBST for three times. 300 µl/well of blocking solution (PBST containing 1% BSA (W/W)) was added, and the plates were blocked at 37 °C for 2 hours. After the blocking solution was discarded, the plates were washed with PBST for three times. 100 µl/well of antibody (5-fold gradient dilution, 8 dilution points) was added and incubated at 37 °C for 1 hour. The antibody solution was then discarded, and the plates were washed with PBST for three times. Goat anti-Human IgG Fc Highly Cross-Adsorbed Secondary Antibody, HRP (Invitrogen, Cat# A18829, 1:5000 dilution, 100 µl/well) was added and incubated at 37 °C for 0.5 hours, followed by three washes with PBST. 100 µl/well of TMB chromogenic substrate (solarbio, Cat# PR1200) was added and incubated at 37 °C for 5 minutes, after which 50 µl/well of ELISA stop solution (solarbio, Cat# C1058) was added. The OD450 was read using a microplate reader (ELx800 Absorbance Microplate Reader, BioTek). Data analysis and curve fitting were performed using software (GraphPad Prism 8).

[2] = target: T2, CHOK1-CD47 cells (Homo sapiens, UniProt Q08722); test: FACS binding of CD47 antibodies to CHOK1-CD47 cells; settings: Example 4.3
T2 construct: expressed in transfected cells; host or cells: CHO-K1 (CHOK1-CD47, puromycin selection)
T2 sequence (Q08722 19-323): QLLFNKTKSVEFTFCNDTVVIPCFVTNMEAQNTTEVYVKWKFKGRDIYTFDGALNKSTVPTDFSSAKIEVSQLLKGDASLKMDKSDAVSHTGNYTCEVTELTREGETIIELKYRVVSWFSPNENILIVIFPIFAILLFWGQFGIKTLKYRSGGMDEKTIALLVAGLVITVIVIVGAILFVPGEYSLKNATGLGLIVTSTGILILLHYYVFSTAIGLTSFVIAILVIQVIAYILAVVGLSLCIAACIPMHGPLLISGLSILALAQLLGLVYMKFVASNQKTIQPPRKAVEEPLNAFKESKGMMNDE
Experimental: The desired overexpressing cell line, CHOK1-CD47 (cultured in RPMI-1640 (ATCC Modification, Gibco, Cat# A10491-01) + 10% FBS (BI, Cat# 04-001-1A) + 1× P/S + 6 µg/ml Puromycin (Gibco, Cat# a1113803, 10 × 1 ml (10 mg/ml))), was expanded to the logarithmic phase. Cells were digested, collected, and pipetted to create a single-cell suspension, followed by centrifugation and removal of the supernatant. The cells were resuspended in FACS buffer (PBS + 2% FBS) and counted, and the cell density was adjusted to 2×10^6/ml. 100 µl/well of this suspension was added to a 96-well plate (Corning, Cat# 3799). […] After three washes with FACS buffer by centrifugation, the cells were resuspended in 200 µl/well of FACS buffer and analyzed using FACS (BECKMAN COULTER, CytoFLEX). Data were fitted and the results were analyzed using software (GraphPad Prism 8).
The desired overexpressing cell line, CHOK1-CD47 (cultured in RPMI-1640 (ATCC Modification, Gibco, Cat# A10491-01) + 10% FBSThe (BI, Cat# 04-001-1A) + 1× P/S + 6 µg/ml Puromycin (Gibco, Cat# A1113803, 10 × 1 ml (10 mg/ml))), was expanded to the logarithmic phase. […] After three washes with FACS buffer by centrifugation, the cells were resuspended in 200 µl/well of FACS buffer and analyzed using FACS (BECKMAN COULTER, CytoFLEX). Data were fitted and the results were analyzed using software (GraphPad Prism 8).

[3] = In vivo hematological toxicity, blood cell counting; design: species or system hSIRPA/hCD47 (C57 background) mice; settings: for PLT Count Mean / RBC Count Mean: 5mg/kg single intraperitoneal dose
Experimental: hSIRPA/hCD47 (C57 background) mice were randomly divided into 4 groups based on body weight, with 3 mice per group. The hematological toxicity of 70H1.IgG1.Y61C+20K and 70H1.IgG1.Y61C+40K was studied via intraperitoneal injection.
The experimental groups were divided as follows: • 70H1.IgG1.Y61C+20K (5 mg/kg) group, • 70H1.IgG1.Y61C+40K (10 mg/kg) group, • 70H1.IgG1.Y61C+40K (20 mg/kg) group, • 70H1.IgG1.Y61C+40K (30 mg/kg) group.
After grouping, a single dose of the corresponding antibody was administered intraperitoneally to the mice. Blood cell counting was performed on the mice at D0 (pre-dose), D2, D5, D7, D9, and D12.

T1 sequence (Q08722 19-323): as above

B1: CD47 TMEAbody: CD47 TMEAbody conjugated with PEG of approximately 20K molecular weight (i.e., PEG20K) (conjugate)
VH: QQQLEESGGGLVKPEGSLTLTCTASGFSFSSGYDMCWVRQAPGRGLEWIACIYTRSSGGTCYASWAKGRFTISKTSSTVDLRMTSLTAADTATYFCAGGRSSYRLNLWGQGALVTVSS
VL: DVVMTQTPSPVEAAVGGTVTIKCQASQSISNELSWYQQKPGQPPKLLIYRASTLESGVSSRFKGSGSGTEFTLTISDLECADAATYYCQSTFYGDYGNAFGGGTEVVVK
binding affinity weaker compared to 70H1 [1]: approximately 7 fold | recovery of binding affinity ([1]; legumain (asparaginyl endopeptidase, AEP)): recoverable by legumain | binding to cells lower compared to 70H1 [2]: approximately 20 fold | PLT Count Mean ([3]; D0 (pre-dose)): 1668.33 10^9/L | RBC Count Mean ([3]; D0 (pre-dose)): 8.53 10^12/L | PLT Count Mean ([3]; D2): 1406.33 10^9/L | RBC Count Mean ([3]; D2): 6.56 10^12/L | PLT Count Mean ([3]; D5): 1142.33 10^9/L | RBC Count Mean ([3]; D5): 7.48 10^12/L | PLT Count Mean ([3]; D7): 1435.33 10^9/L | RBC Count Mean ([3]; D7): 9.62 10^12/L | PLT Count Mean ([3]; D9): 1356.00 10^9/L | RBC Count Mean ([3]; D9): 9.55 10^12/L | PLT Count Mean ([3]; D12): 1351.00 10^9/L | RBC Count Mean ([3]; D12): 9.45 10^12/L | change in red blood cells ([3]; 5 mg/kg, D2 post-administration): reversible decrease in red blood cells | change in platelets ([3]; 5 mg/kg, D5 post-administration): reversible decrease in platelets
